B1: TRIM35 (parent)
chain: PTCPVCKDRASPADLRTNHTLNNL

Variants of: B1
Assay: protein stability index of a GFP-peptide fusion (GPS, HEK-293T) (PSI 1-6); higher = more stable
Conditions: c terminus: a fixed tail appended
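Note: lentivirally expressed fusions sorted by FACS into six bins by GFP to DsRed ratio, PSI derived from sequencing read proportions per bin multiplied by bin number.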

Variant	protein stability index
N23Q	3.1
N23H	3.47
N23F	2.27
N23R	2.37
N23K	3.12
N23M	2.47
N23C	4.21
N23A	2.73
N23I	2.1
N23G	2.92
N23E	3.48
N23L	2.28
N23Y	1.88
N23P	2.76
N23T	2.58
N23V	3.06
N23S	3.18
N23W	2.09
N23D	3.81
T20K	2.81
T20L	2.77

Variant	protein stability index
T20Y	2.74
T20M	2.67
T20W	2.09
T20S	2.7
T20R	2.93
T20Q	3.06
T20N	3
T20I	2.76
T20V	3.19
T20A	3.11
T20E	3.92
T20P	3.23
T20G	2.76
T20H	3.03
T20D	3.76
T20C	3
T20F	2.59
H19T	2.81
H19Y	3.13
H19W	2.86
H19V	3.04

Variant	protein stability index
L21P	3.39
L21S	3.42
L21Y	2.76
L21E	3.59
L21G	3.3
L21T	3.07
L21C	4.64
L21A	3.22
L21F	2.62
L21N	3.27
L21H	3.66
L21Q	3.52
L21K	3.13
L21W	2.18
L21M	3.18
L21R	2.55
L21D	3.99
L21I	2.61
L21V	2.96
L24N	3.91
L24I	3.5

Variant	protein stability index
L24K	3.37
L24Q	3.36
L24V	3.56
L24M	2.8
L24C	3.94
L24S	3.79
L24G	3.83
L24F	3.32
L24D	4.37
L24R	1.82
L24P	3.83
L24A	3.89
L24H	3.58
L24T	3.62
L24Y	2.76
L24E	4.03
L24W	3
N22K	2.87
N22Q	3.63
N22V	2.21
